Experimental data from US20050064507.

Legend:
[1] = molecular target: T1, ANK1 peptide AQIVKRASLKRGKQ (SEQ ID NO:90) (not fully specified)
T1 chain: AQIVKRASLKRGKQ

[2] = molecular target: T2, SYTL4 peptide RQGKRKTSIKRDTVNPL (SEQ ID NO:87) (not fully specified)
T2 chain: RQGKRKTSIKRDTVNPL

[3] = molecular target: T3, ARHGAP6 peptide DGQKRKKSLRKKLD (SEQ ID NO:92) (not fully specified)
T3 chain: DGQKRKKSLRKKLD

[4] = molecular target: T4, ERN1 peptide ISDFGLAKKLAVGRHSFSRR (SEQ ID NO:145) (not fully specified)
T4 chain: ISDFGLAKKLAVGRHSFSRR

[5] = molecular target: T5, PARIS1 peptide EYLERRASRRRAV (SEQ ID NO:130) (not fully specified)
T5 chain: EYLERRASRRRAV

[6] = molecular target: T6, kinesin 3C peptide LEKRGMLGKRPRRKSSRRKK (SEQ ID NO:133) (not fully specified)
T6 chain: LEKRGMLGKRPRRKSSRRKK

[7] = molecular target: T7, LIMK2 peptide KATTKKRTLRKNDRK (SEQ ID NO:108) (not fully specified)
T7 chain: KATTKKRTLRKNDRK

[8] = molecular target: T8, MAP3K14 peptide WKGKRRSKARKKRK (SEQ ID NO:100) (not fully specified)
T8 chain: WKGKRRSKARKKRK

[9] = molecular target: T9, ADD2 peptide KKKFRTPSFLKKSKK (SEQ ID NO:95) (not fully specified)
T9 chain: KKKFRTPSFLKKSKK

[10] = molecular target: T10, gravin peptide KKFFTQGWAGWRKKTSFRKP (SEQ ID NO:154) (not fully specified)
T10 chain: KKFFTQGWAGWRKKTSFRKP

[11] = molecular target: T11, ankyrin R peptide DLIEGRKGAQIVKRASLKRG (SEQ ID NO:152) (not fully specified)
T11 chain: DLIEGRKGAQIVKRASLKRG

[12] = molecular target: T12, AF15q14 peptide GFLNEPLSSKSQRRKSLKLK (SEQ ID NO:132) (not fully specified)
T12 chain: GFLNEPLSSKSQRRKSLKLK

[13] = molecular target: T13, p164-RhoGEF peptide PRLIRRGSKKRPAR (SEQ ID NO:124) (not fully specified)
T13 chain: PRLIRRGSKKRPAR

[14] = molecular target: T14, titin peptide PFEVVWYKDKRQLRSSKKYK (SEQ ID NO:160) (not fully specified)
T14 chain: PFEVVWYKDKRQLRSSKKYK

[15] = molecular target: T15, slp4 peptide TYLLPDKSRQGKRKTSIKRD (SEQ ID NO:153) (not fully specified)
T15 chain: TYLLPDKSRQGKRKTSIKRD

[16] = molecular target: T16, MARCKS peptide KKRFSFKKSFKLSGFSFKKN (SEQ ID NO:119) (not fully specified)
T16 chain: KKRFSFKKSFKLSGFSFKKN

[17] = molecular target: T17, KCNH2 peptide RQRKRKLSFRRRTDKD (SEQ ID NO:86) (not fully specified)
T17 chain: RQRKRKLSFRRRTDKD

[18] = molecular target: T18, HERG peptide TELEGGFSRQRKRKLSFRRR (SEQ ID NO:140) (not fully specified)
T18 chain: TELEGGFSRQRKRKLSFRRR

[19] = molecular target: T19, beta adducin peptide KKKFRTPSFLKKSKK (SEQ ID NO:135) (not fully specified)
T19 chain: KKKFRTPSFLKKSKK

[20] = molecular target: T20, NF1 peptide SQVQKQRSAGSFKRNSIKKI (SEQ ID NO:127) (not fully specified)
T20 chain: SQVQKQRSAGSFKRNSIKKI

[21] = molecular target: T21, cytohesin-2 peptide VDPFYEMLAARKKRISVKKK (SEQ ID NO:150) (not fully specified)
T21 chain: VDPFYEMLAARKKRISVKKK

[22] = molecular target: T22, pkc-zeta peptide GLPAPGEDKSIYRRGSRRWR (SEQ ID NO:167) (not fully specified)
T22 chain: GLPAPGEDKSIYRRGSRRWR

[23] = molecular target: T23, SMARCA5 peptide MAQIERGEARIQRRISIKKA (SEQ ID NO:166) (not fully specified)
T23 chain: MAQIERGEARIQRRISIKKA

[24] = molecular target: T24, LIMK-2 peptide LRRRSLRRSNSISKSPGP (SEQ ID NO:121) (not fully specified)
T24 chain: LRRRSLRRSNSISKSPGP

[25] = molecular target: T25, AKAP12 peptide AGWRKKTSFRKPKED (SEQ ID NO:99) (not fully specified)
T25 chain: AGWRKKTSFRKPKED

[26] = molecular target: T26, MARCKS peptide KKKKKRFSFKKSFKL (SEQ ID NO:80) (not fully specified)
T26 chain: KKKKKRFSFKKSFKL

[27] = molecular target: T27, DGKI peptide NRKKKRTSFKRKA (SEQ ID NO:79) (not fully specified)
T27 chain: NRKKKRTSFKRKA

[28] = molecular target: T28, SPTBN4 peptide EGGDRRASGRRK (SEQ ID NO:110) (not fully specified)
T28 chain: EGGDRRASGRRK

[29] = molecular target: T29, PARIS1 peptide EYLERRASRRRAV (SEQ ID NO:138) (not fully specified)
T29 chain: EYLERRASRRRAV

[30] = molecular target: T30, dag kinase iota peptide NRKKKRTSFKRKA (SEQ ID NO:117) (not fully specified)
T30 chain: NRKKKRTSFKRKA

[31] = molecular target: T31, NIK peptide WKGKRRSKARKKRK (SEQ ID NO:131) (not fully specified)
T31 chain: WKGKRRSKARKKRK

[32] = molecular target: T32, SDPR peptide EKIKRSSLKKVDSLKK (SEQ ID NO:104) (not fully specified)
T32 chain: EKIKRSSLKKVDSLKK

B1: PKC-epsilon (protein)
chain: MVVFNGLLKIKICEAVSLKPTAWSLRHAVGPRPQTFLLDPYIALNVDDSRIGQTATKQKTNSPAWHDEFVTDVCNGRKIELAVFHDAPIGYDDFVANCTIQFEELLQNGSRHFEDWIDLEPEGRVYVIIDLSGSSGEAPKDNEERVFRERMRPRKRQGAVRRRVHQVNGHKFMATYLRQPTYCSHCRDFIWGVIGKQGYQCQVCTCVVHKRCHELIITKCAGLKKQETPDQVGSQRFSVNMPHKFGIHNYKVPTFCDHCGSLLWGLLRQGLQCKVCKMNVHRRCETNVAPNCGVDARGIAKVLADLGVTPDKITNSGQRRKKLIAGAESPQPASGSSPSEEDRSKSAPTSPCDQEIKELENNIRKALSFDNRGEEHRAASSPDGQLMSPGENGEVRQGQAKRLGLDEFNFIKVLGKGSFGKVMLAELKGKDEVYAVKVLKKDVILQDDDVDCTMTEKRILALARKHPYLTQLYCCFQTKDRLFFVMEYVNGGDLMFQIQRSRKFDEPRSRFYAAEVTSALMFLHQHGVIYRDLKLDNILLDAEGHCKLADFGMCKEGILNGVTTTTFCGTPDYIAPEILQELEYGPSVDWWALGVLMYEMMAGQPPFEADNEDDLFESILHDDVLYPVWLSKEAVSILKAFMTKNPHKRLGCVASQNGEDAIKQHPFFKEIDWVLLEQKKIKPPFKPRIKTKRDVNNFDQDFTREEPVLTLVDEAIVKQINQEEFKGFSYFGEDLMP
[1]
  in vitro phosphorylation (% of best substrate): 49
[2]
  in vitro phosphorylation (% of best substrate): 31
[3]
  in vitro phosphorylation (% of best substrate): 51
[4]
  in vitro phosphorylation, 1 uM peptide (% of best substrate): 26
[5]
  in vitro phosphorylation, 1 uM peptide (% of best substrate): 46
[6]
  in vitro phosphorylation, 1 uM peptide (% of best substrate): 31
[7]
  in vitro phosphorylation (% of best substrate): 8
[8]
  in vitro phosphorylation (% of best substrate): 13
[9]
  in vitro phosphorylation (% of best substrate): 31
[10]
  in vitro phosphorylation, 1 uM peptide (% of best substrate): 29
[11]
  in vitro phosphorylation, 1 uM peptide (% of best substrate): 25
[12]
  in vitro phosphorylation, 1 uM peptide (% of best substrate): 47
[13]
  in vitro phosphorylation, 1 uM peptide (% of best substrate): 49
[14]
  in vitro phosphorylation, 1 uM peptide (% of best substrate): 13
[15]
  in vitro phosphorylation, 1 uM peptide (% of best substrate): 24
[16]
  in vitro phosphorylation, 1 uM peptide (% of best substrate): 81
[17]
  in vitro phosphorylation (% of best substrate): 63
[18]
  in vitro phosphorylation, 1 uM peptide (% of best substrate): 27
[19]
  in vitro phosphorylation, 1 uM peptide (% of best substrate): 27
[20]
  in vitro phosphorylation, 1 uM peptide (% of best substrate): 32
[21]
  in vitro phosphorylation, 1 uM peptide (% of best substrate): 20
[22]
  in vitro phosphorylation, 1 uM peptide (% of best substrate): 6
[23]
  in vitro phosphorylation, 1 uM peptide (% of best substrate): 10
[24]
  in vitro phosphorylation, 1 uM peptide (% of best substrate): 49
[25]
  in vitro phosphorylation (% of best substrate): 27
[26]
  in vitro phosphorylation (% of best substrate): 71
[27]
  in vitro phosphorylation (% of best substrate): 92
[28]
  in vitro phosphorylation (% of best substrate): 4
[29]
  in vitro phosphorylation, 1 uM peptide (% of best substrate): 27
[30]
  in vitro phosphorylation, 1 uM peptide (% of best substrate): 67
[31]
  in vitro phosphorylation, 1 uM peptide (% of best substrate): 43
[32]
  in vitro phosphorylation (% of best substrate): 17
